Data as given in publication doi:10.1101/2025.11.15.688623.

Legend:
[1] = molecular target: AccE5 (ε-subunit) (Mycobacterium smegmatis (endogenous in M. smegmatis)); assay: cryo-EM structure
[2] = molecular target: AccA3 (biotin carboxylase subunit with C-terminal BCCP domain) (Mycobacterium smegmatis (endogenous in M. smegmatis)); assay: cryo-EM structure

Row | Substance | stoichiometry N [1] | stoichiometry N [2]
1 | AccE5 (ε-subunit) (natural protein) | 2 | 
2 | AccA3 (biotin carboxylase subunit with C-terminal BCCP domain) (enzyme) |  | 4
